Holding throughout (assay): SPR
On the technique in general: SPR reads the build-up and loss of mass on a sensor chip optically.

In test [1] the target is T1, RBD (residues 334–527 of the SARS-CoV-2 spike glycoprotein) (SARS-CoV-2, UniProt P0DTC2 334-527).
Test [2] addresses T1, RBD (residues 334–527 of the SARS-CoV-2 …). The source holds these as a separate data set.
Test [3] has the same target. The source holds these as a separate data set.

Where two headings read alike, the source gives them in different places.

A word on the Kd: it is the equilibrium constant for the complex coming apart. Read a low Kd as a tighter complex. The term koff denotes the rate constant with which the complex falls apart. Higher therefore signals fast dissociation.

B1: 2196_CDRL3_RP (antibody, V domains shown)
VH: QMQLVQSGPEVKKPGTSVKVSCKASGFTFMSSAVQWVRQARGQRLEWIGWIVIGSGNTNYAQKFQERVTITRDMSTSTAYMELSSLRSEDTAVYYCAAPYCSSISCNDGFDIWGQGTMVTVSS
VL: not shown
B1: the Kd in test [1] worked out at 203 nM; in test [2] it was 204 nM. This molecule yielded a dissociation rate constant (koff) in test [3] of 0.12 s⁻¹.

B2: 2196_CDRL3_Q (antibody, V domains shown)
VH: QMQLVQSGPEVKKPGTSVKVSCKASGFTFMSSAVQWVRQARGQRLEWIGWIVIGSGNTNYAQKFQERVTITRDMSTSTAYMELSSLRSEDTAVYYCAAPYCSSISCNDGFDIWGQGTMVTVSS
VL: not shown
Take B2: the koff in test [3] was found to be 0.0171 s⁻¹.

B3: 2196 HC + 2072 LC (antibody, V domains shown)
VH: QMQLVQSGPEVKKPGTSVKVSCKASGFTFMSSAVQWVRQARGQRLEWIGWIVIGSGNTNYAQKFQERVTITRDMSTSTAYMELSSLRSEDTAVYYCAAPYCSSISCNDGFDIWGQGTMVTVSS
VL: not shown
Turning to B3, in test [3], the koff is 0.0309 s⁻¹.

B4: 2196_CDRL1_des2 (antibody, V domains shown)
VH: QMQLVQSGPEVKKPGTSVKVSCKASGFTFMSSAVQWVRQARGQRLEWIGWIVIGSGNTNYAQKFQERVTITRDMSTSTAYMELSSLRSEDTAVYYCAAPYCSSISCNDGFDIWGQGTMVTVSS
VL: EIVLTQSPGTLSLSPGERATLSCRASQTISNSYVAWYQQKPGQAPRLLIYGASSRATGIPDRFSGSGSGTDFTLTISRLEPEDFAVYYCQHYGSSRGWTFGQGTKVEIK
As to B4, in test [3], the koff amounted to 0.0216 s⁻¹.

B5: 2196 WT (recombinant mAb COV2-2196) (antibody, V domains shown)
VH: QMQLVQSGPEVKKPGTSVKVSCKASGFTFMSSAVQWVRQARGQRLEWIGWIVIGSGNTNYAQKFQERVTITRDMSTSTAYMELSSLRSEDTAVYYCAAPYCSSISCNDGFDIWGQGTMVTVSS
VL: not shown
The molecule B5 displayed a dissociation rate constant (koff) in test [3] of 0.0133 s⁻¹.

B6: 2196_CDRL3_GP (antibody, V domains shown)
VH: QMQLVQSGPEVKKPGTSVKVSCKASGFTFMSSAVQWVRQARGQRLEWIGWIVIGSGNTNYAQKFQERVTITRDMSTSTAYMELSSLRSEDTAVYYCAAPYCSSISCNDGFDIWGQGTMVTVSS
VL: not shown
The molecule B6 returned an off-rate constant (koff) in test [3] of 0.0133 s⁻¹.

B7: DMAb-2196_CDRL3_P (antibody, V domains shown)
VH: QMQLVQSGPEVKKPGTSVKVSCKASGFTFMSSAVQWVRQARGQRLEWIGWIVIGSGNTNYAQKFQERVTITRDMSTSTAYMELSSLRSEDTAVYYCAAPYCSSISCNDGFDIWGQGTMVTVSS
VL: not shown
As to B7, the Kd in test [1] stood at 88.5 nM. Also, in test [3], the koff was found to be 0.1 s⁻¹.

B8: 2196_CDRL1_des1 (antibody, V domains shown)
VH: QMQLVQSGPEVKKPGTSVKVSCKASGFTFMSSAVQWVRQARGQRLEWIGWIVIGSGNTNYAQKFQERVTITRDMSTSTAYMELSSLRSEDTAVYYCAAPYCSSISCNDGFDIWGQGTMVTVSS
VL: EIVLTQSPGTLSLSPGERATLSCRASQTISNNFVAWYQQKPGQAPRLLIYGASSRATGIPDRFSGSGSGTDFTLTISRLEPEDFAVYYCQHYGSSRGWTFGQGTKVEIK
In test [1], B8 yielded a Kd of 47.6 nM. In addition, the koff in test [3] amounted to 0.0823 s⁻¹.

Values taken from article PMC11764276 (2024).
